Data as given in patent US10202593B2, “Evolved sortases and uses thereof” (President and Fellows of Harvard College, priority 2013, dated 2019).
“And” between values parts separate entries of the source, which are not always exact repeats. Equal values may be shown once. Read-outs that look alike come from different tables or passages of the source.

Key:
Assay type in all cases: biochemical
[1] = tested on: LPETG (Abz-LPETGK(Dnp)-CONH2); assay: In vitro sortase kinetics HPLC assay, LPETG substrate
Summary of the method: (§1)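 Abz-LXEXGK(Dnp) peptides in 300 mM Tris pH 7.5, 150 mM NaCl, 5 mM CaCl2, 5% DMSO, GGG; 22.5° C., acid-quenched, converted fraction by reverse-phase HPLC peak areas. kcat and Km from eight substrate concentrations fit to Michaelis-Menten; KH at 1 mM substrate over eight GGG levels.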

[2] = tested on: LPESG (Abz-LPESGK(Dnp)-CONH2); assay: In vitro sortase kinetics HPLC assay, LPESG substrate
Summary of the method: as §1

[3] = tested on: LAETG (Abz-LAETGK(Dnp)-CONH2); assay: In vitro sortase kinetics HPLC assay, LAETG substrate; settings: for Km: read-out: Km
Summary of the method: as §1

[4] = tested on: LPEAG; assay: In vitro sortase kinetics HPLC assay, LPEAG substrate
Description: (§2) See below for details on sortase expression and purification, and on the synthesis of Abz-LPETGK(Dnp)-CONH2 (SEQ ID NO: 19). […] Reactions were initiated with the addition of enzyme and incubated at 22.5° C. for 3 to 20 minutes before quenching with 0.5 volumes of 1 M HCl. Five to ten nmol of peptide from the quenched reactions were injected onto an analytical reverse-phase Eclipse XDB-C18 HPLC column (4.6×150 mm, 5 μm, Agilent Technologies) and chromatographed using a gradient of 10 to 65% acetonitrile with 0.1% TFA in 0.1% aqueous TFA over 13 minutes. Retention times under these conditions for the Abz-LPETGK(Dnp)-CONH2 (SEQ ID NO: 19) substrate, the released GKDnp peptide, and the Abz-LPETGGG-COOH (SEQ ID NO: 20) product were 12.8, 10.4, and 9.1 min, respectively. To calculate the percent conversion, the ratio of the integrated areas of the Abz-LPETGGG-COOH (SEQ ID NO: 20) and Abz-LPETGK(Dnp)-CONH2 (SEQ ID NO: 19) peptide Abs220 peaks was compared to a standard curve generated by mixing the product and starting peptide in known ratios. To determine […] and Km, reaction rates were fit to the Michaelis-Menten equation using OriginPro 7.0 software. All kinetics values reported represent the average of at least three measurements. Percent conversion was also calculated by using the ratio of the integrated areas of the GK(Dnp)-CONH2 and Abz-LPETGK(Dnp)-CONH2 peptide Abs355 peaks were compared directly (Example 5). To determine kcat and Km, LPETG, reaction rates were fit to the Michaelis-Menten equation using Microsoft Excel using the Solver add-in. To determine Km,GGG and KH, reaction rates were fit to the modified Michaelis-Menten, for which KH is as defined when KH<<Km,GGG.
(§3) Assays to determine eSrtA, eSrtA(2A-9) and eSrtA(4S-9) specificity were performed by preparing 10 μM stocks of Abz-LXEXGK(Dnp) (SEQ ID NO: 75) peptides in 300 mM Tris pH 7.5, 150 mM NaCl, 5 mM CaCl2, 5% v/v DMSO, and 100 mM Gly-Gly-Gly-COOH (GGG). Reactions were performed by adding eSrtA(2A-9) to a final concentration of 450 nM, eSrtA(4S-9) to a final concentration of 115 nM or eSrtA to a final concentration of 47.5 nM and a final volume of 100 μL, then incubating at 22.5° C. for 15 minutes. Reactions were quenched by the addition of 0.2 volumes of 5 M HCl, then were injected onto an analytical reverse-phase Eclipse XDB-C18 HPLC column (4.6×150 mm, 5 μm, Agilent Technologies) and chromatographed using a gradient of 10 to 65% acetonitrile with 0.1% TFA in 0.1% aqueous TFA over 13 minutes. Retention times under these conditions for the Abz-LPETGK(Dnp)-CONH2 (SEQ ID NO: 19) substrate, the released GKDnp peptide, and the Abz-LPETGGG-COOH (SEQ ID NO: 20) product were 12.8, 10.4, and 9.1 min, respectively, while the remaining Abz-LXEXGK(Dnp)-CONH2 (SEQ ID NO: 74) substrates varied in retention time between 9 and 13 minutes. To calculate the percent conversion, the ratio of the integrated areas of the GK(Dnp)-CONH2 and Abz-LPETGK(Dnp)-CONH2 (SEQ ID NO: 19) peptide Abs355 peaks were compared directly. Subsequent determination of kcat/Km and KH were performed as described for in vitro SrtA characterization.
(§4) The original pentamutant comprising the mutations P94R, D160N, D165A, K190E, and K196T is referred to as eSrtA. Sortase variants herein were evolved using eSrtA as the parent enzyme in the evolution experiments. In some cases, an evolved sortase comprises a N160K mutation instead of a D160N or a T196S mutation instead of a K196T. Parameters are reported with their standard deviations as determined from three technical replicates. kcat, Km and kcat/Km parameters were determined at 100 mM GGG concentration, while Km,GGG and KH parameters were determined at 1 mM concentration of the listed substrate.

[5] = tested on: LPECG; assay: In vitro sortase kinetics HPLC assay, LPECG substrate
Description: as §2, §3, §4

[6] = GGG varied, substrate wt (LPETG)
[7] = GGG varied, substrate 4S (LPESG)

B1: eSrtA(4S-9): P94R, N98D, S102C, A104V, A118T, F122A, K134R, F144L, D160N, D165A, I182V, E189F, K190E, K196T (protein)
chain: QAKPQIPKDKSKVAGYIEIPDADIKEPVYPGPATREQLDRGVCFVEENESLDDQNISITGHTAIDRPNYQFTNLRAAKKGSMVYLKVGNETRKYKMTSIRNVKPTAVEVLDEQKGKDKQLTLVTCDDYNFETGVWETRKIFVATEVK
KH ([1]; 1 mM LPETG): 295 ± 19 µM
KN ([1]; 1 mM LPETG, eight GGG concentrations): 295 ± 19 µM
Km ([1]; 1 mM LPETG, read-out: Km,GGG): 98000 ± 13000 µM
Avg kcat (Hz) ([1]; Example 5 variants, substrate wt (LPETG)): 0.0468 Hz
Km ([1]; Example 5 variants, substrate wt (LPETG), read-out: Avg KM): 66.1 µM
Avg kHydro (Hz) [1, 6]: 0.000173 Hz
Avg kcat (Hz) [1, 6]: 0.05704 Hz
Km ([1]; KM for GGG, substrate wt (LPETG), read-out: Avg KM): 97600 µM
KH,LPETG ([1]; LPETG substrate): 295 ± 18 µM
Kcat (Hz) ([1]; Sub LPETG, 100 mM GGG): 0.047 ± 0.006 Hz
Km ([1]; Sub LPETG, 100 mM GGG, read-out: Km): 64.7 ± 4.2 µM
Rel. Activity ([1]; Sub LPETG, kcat/Km of the enzyme's preferred substrate relative to kcat/Km on this substrate): 25
Kcat (Hz) ([1]; Table 2, Sub LPETG): 0.047 ± 0.006 Hz
Km ([1]; Table 2, Sub LPETG, read-out: Km): 64.7 ± 4.2 µM
activity on LPETG ([1]; round 9 clones): minimally active on LPETG
Avg KH ([1]; substrate wt (LPETG)): 294.8601 µM
KH ([2]; 1 mM LPESG): 174 ± 32 µM
KN ([2]; 1 mM LPESG, eight GGG concentrations): 174 ± 32 µM
Km ([2]; 1 mM LPESG, read-out: Km,GGG): 69000 ± 12000 µM
Avg kcat (Hz) ([2]; Example 5 variants, substrate 4S (LPESG)): 2.146 Hz
Km ([2]; Example 5 variants, substrate 4S (LPESG), read-out: Avg KM): 123 µM
Avg kHydro (Hz) [2, 7]: 0.008016 Hz
Avg kcat (Hz) [2, 7]: 3.178 Hz
Km ([2]; KM for GGG, substrate 4S (LPESG), read-out: Avg KM): 69500 µM
KH (KH,LPESG) ([2]; LPESG substrate): 174 ± 32 µM
Kcat (Hz) ([2]; Sub LPESG, 100 mM GGG): 2.05 ± 0.15 Hz
Km ([2]; Sub LPESG, 100 mM GGG, read-out: Km): 113 ± 12 µM
Rel. Activity ([2]; Sub LPESG, kcat/Km of the enzyme's preferred substrate relative to kcat/Km on this substrate): 1
Kcat (Hz) ([2]; Table 2, Sub LPESG): 2.05 ± 0.15 Hz
Km ([2]; Table 2, Sub LPESG, read-out: Km): 113 ± 12 µM
change in specificity for LPESG versus LPETG relative to eSrtA ([2]; ratio of (kcat/KM)target to (kcat/KM)LPETG, relative to eSrtA): 120 fold and 125 fold
preference for LPESG over LPETG ([2]; ratio of kcat/KM): 25 fold
Specificity ([2]; ratio of kcat/KM, 4S (LPESG) over wt (LPETG)): 24.953
Avg KH ([2]; substrate 4S (LPESG)): 173.5925 µM
activity on LAETG [3]: negligible activity
Kcat (Hz) ([3]; Sub LAETG, 100 mM GGG): 0.0078 ± 0.0006 Hz
Km ([3]; Sub LAETG, 100 mM GGG): 387 ± 49 µM
Rel. Activity ([3]; Sub LAETG, kcat/Km of the enzyme's preferred substrate relative to kcat/Km on this substrate): 898
Kcat (Hz) ([3]; Table 2, Sub LAETG): 0.0078 ± 0.0006 Hz
Km ([3]; Table 2, Sub LAETG): 387 ± 49 µM
KH ([4]; 1 mM LPEAG): 193 ± 30 µM
Km ([4]; 1 mM LPEAG, read-out: Km,GGG): 41000 ± 4000 µM
Kcat (Hz) ([4]; Sub LPEAG, 100 mM GGG): 1.90 ± 0.01 Hz
Km ([4]; Sub LPEAG, 100 mM GGG, read-out: Km): 154 ± 3 µM
activity for LPECG compared with LPETG [5]: exceeds that of LPETG
KH ([5]; 1 mM LPECG): 120 ± 23 µM
Km ([5]; 1 mM LPECG, read-out: Km,GGG): 55000 ± 1400 µM
Kcat (Hz) ([5]; Sub LPECG, 100 mM GGG): 5.0 ± 0.6 Hz
Km ([5]; Sub LPECG, 100 mM GGG, read-out: Km): 69 ± 13 µM
